In US20210070840A1 (Bristol-Myers Squibb, published 2021):

T1: human IL-23 (human, UniProt P29460 23-328; Q9NPF7 20-189)
T1 construct: Secreted from Sf9 cells for the crystal structure; One molecule is used for all three; also called Interleukin-23
T1 sequence (looked up) 1: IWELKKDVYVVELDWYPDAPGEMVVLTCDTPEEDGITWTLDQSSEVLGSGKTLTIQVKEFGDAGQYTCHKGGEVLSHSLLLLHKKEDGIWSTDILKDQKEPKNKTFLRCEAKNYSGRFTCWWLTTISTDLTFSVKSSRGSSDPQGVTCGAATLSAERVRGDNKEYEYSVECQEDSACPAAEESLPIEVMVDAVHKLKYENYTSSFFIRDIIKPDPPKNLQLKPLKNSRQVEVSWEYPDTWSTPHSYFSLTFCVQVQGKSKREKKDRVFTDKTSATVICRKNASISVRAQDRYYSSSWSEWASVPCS
T1 sequence (looked up) 2: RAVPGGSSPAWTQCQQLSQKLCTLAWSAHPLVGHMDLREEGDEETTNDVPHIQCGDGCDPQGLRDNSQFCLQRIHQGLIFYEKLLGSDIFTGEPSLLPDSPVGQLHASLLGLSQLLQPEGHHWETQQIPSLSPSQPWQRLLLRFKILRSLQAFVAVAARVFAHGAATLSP


What was measured:
human IL-23 [1] = target: T1, human IL-23; assay: ratio of competition ELISA IC50, parent/mutant
human IL-23 [2] = target: T1, human IL-23; assay: SPR (Biacore T100), immobilized human IL-23, single cycle kinetics
human IL-23 [3] = target: T1, human IL-23; assay: competition ELISA: Adnectin + 1 nM IL-23 on coated IL-23R-Fc

Row | Activity (parent/mutant) (human IL-23 [1]) [ratio] | Kd (human IL-23 [2]) [nM] | IC50 (human IL-23 [3]) [nM] | Binder
1 | 1 | 2 | 1 | Adnectin 2 (designed binder, also called anti-IL-23 Adnectin; ATI-000929) MGVSDVPRDLEVVAATPTSLLISWEHDYPYRRYYRITYGETGGNSPVQEFTVPKDVDTATISGLKPGVDYTITVYAVTSSYKYDMQYSPISINYRTEIDKPSQHHHHHH
2 | 0.8 | – | 1.2 | Adnectin 2 Y73→N (designed binder) MGVSDVPRDLEVVAATPTSLLISWEHDYPYRRYYRITYGETGGNSPVQEFTVPKDVDTATISGLKPGVDYTITVNAVTSSYKYDMQYSPISINYRTEIDKPSQHHHHHH
3 | 0.1 | – | 8.3 | Adnectin 2 P87→A (designed binder) MGVSDVPRDLEVVAATPTSLLISWEHDYPYRRYYRITYGETGGNSPVQEFTVPKDVDTATISGLKPGVDYTITVYAVTSSYKYDMQYSAISINYRTEIDKPSQHHHHHH
4 | 0.6 | – | 1.7 | Adnectin 2 T35→N (designed binder) MGVSDVPRDLEVVAATPTSLLISWEHDYPYRRYYRINYGETGGNSPVQEFTVPKDVDTATISGLKPGVDYTITVYAVTSSYKYDMQYSPISINYRTEIDKPSQHHHHHH
5 | 1.8 | – | 0.54 | Adnectin 2 V45→N (designed binder) MGVSDVPRDLEVVAATPTSLLISWEHDYPYRRYYRITYGETGGNSPNQEFTVPKDVDTATISGLKPGVDYTITVYAVTSSYKYDMQYSPISINYRTEIDKPSQHHHHHH
6 | 0.4 | – | 2.3 | Adnectin 2 V75→Q (designed binder) MGVSDVPRDLEVVAATPTSLLISWEHDYPYRRYYRITYGETGGNSPVQEFTVPKDVDTATISGLKPGVDYTITVYAQTSSYKYDMQYSPISINYRTEIDKPSQHHHHHH
7 | 0.8 | – | 1.2 | Adnectin 2 Y73→R (designed binder) MGVSDVPRDLEVVAATPTSLLISWEHDYPYRRYYRITYGETGGNSPVQEFTVPKDVDTATISGLKPGVDYTITVRAVTSSYKYDMQYSPISINYRTEIDKPSQHHHHHH
8 | 0.08 | – | 13 | Adnectin 2 Y28→A (designed binder) MGVSDVPRDLEVVAATPTSLLISWEHDYPARRYYRITYGETGGNSPVQEFTVPKDVDTATISGLKPGVDYTITVYAVTSSYKYDMQYSPISINYRTEIDKPSQHHHHHH
9 | 1.5 | – | 0.65 | Adnectin 2 Y73→A (designed binder) MGVSDVPRDLEVVAATPTSLLISWEHDYPYRRYYRITYGETGGNSPVQEFTVPKDVDTATISGLKPGVDYTITVAAVTSSYKYDMQYSPISINYRTEIDKPSQHHHHHH
10 | 1.9 | – | 0.51 | Adnectin 2 V45→E (designed binder) MGVSDVPRDLEVVAATPTSLLISWEHDYPYRRYYRITYGETGGNSPEQEFTVPKDVDTATISGLKPGVDYTITVYAVTSSYKYDMQYSPISINYRTEIDKPSQHHHHHH
11 | 0.2 | – | 5.7 | Adnectin 2 V75→K (designed binder) MGVSDVPRDLEVVAATPTSLLISWEHDYPYRRYYRITYGETGGNSPVQEFTVPKDVDTATISGLKPGVDYTITVYAKTSSYKYDMQYSPISINYRTEIDKPSQHHHHHH
12 | 1.7 | – | 0.6 | Adnectin 2 T35→E (designed binder) MGVSDVPRDLEVVAATPTSLLISWEHDYPYRRYYRIEYGETGGNSPVQEFTVPKDVDTATISGLKPGVDYTITVYAVTSSYKYDMQYSPISINYRTEIDKPSQHHHHHH
13 | 0.03 | – | 35 | Adnectin 2 Y81→A (designed binder) MGVSDVPRDLEVVAATPTSLLISWEHDYPYRRYYRITYGETGGNSPVQEFTVPKDVDTATISGLKPGVDYTITVYAVTSSYKADMQYSPISINYRTEIDKPSQHHHHHH
14 | 3.8 | – | 0.26 | Adnectin 2 Y73→Q (designed binder) MGVSDVPRDLEVVAATPTSLLISWEHDYPYRRYYRITYGETGGNSPVQEFTVPKDVDTATISGLKPGVDYTITVQAVTSSYKYDMQYSPISINYRTEIDKPSQHHHHHH
15 | 0.4 | – | 2.2 | Adnectin 2 V75→Y (designed binder) MGVSDVPRDLEVVAATPTSLLISWEHDYPYRRYYRITYGETGGNSPVQEFTVPKDVDTATISGLKPGVDYTITVYAYTSSYKYDMQYSPISINYRTEIDKPSQHHHHHH
16 | 1.2 | – | 0.83 | Adnectin 2 V45→D (designed binder) MGVSDVPRDLEVVAATPTSLLISWEHDYPYRRYYRITYGETGGNSPDQEFTVPKDVDTATISGLKPGVDYTITVYAVTSSYKYDMQYSPISINYRTEIDKPSQHHHHHH
17 | 1 | – | 1 | Adnectin 2 T35→Q (designed binder) MGVSDVPRDLEVVAATPTSLLISWEHDYPYRRYYRIQYGETGGNSPVQEFTVPKDVDTATISGLKPGVDYTITVYAVTSSYKYDMQYSPISINYRTEIDKPSQHHHHHH
18 | 2.9 | – | 0.34 | Adnectin 2 V45→Q (designed binder) MGVSDVPRDLEVVAATPTSLLISWEHDYPYRRYYRITYGETGGNSPQQEFTVPKDVDTATISGLKPGVDYTITVYAVTSSYKYDMQYSPISINYRTEIDKPSQHHHHHH
19 | 0.02 | – | 49 | Adnectin 2 T35→D (designed binder) MGVSDVPRDLEVVAATPTSLLISWEHDYPYRRYYRIDYGETGGNSPVQEFTVPKDVDTATISGLKPGVDYTITVYAVTSSYKYDMQYSPISINYRTEIDKPSQHHHHHH
